Experimental findings from patent publication US20230111363A1 are described below.

The target in assay [1] is human FcγRIIIA_F158 (CD16a) extracellular domain (human) (UniProt P08637). Nature of the assay: SPR (Biacore T100), antibody captured on Protein A, FcγR ECD as analyte, steady state, 25 C. For orientation: SPR reads the build-up and loss of mass on a sensor chip optically.
For assay [2], the target named is human FcγRIIA_131H (CD32a) extracellular domain (human) (UniProt P12318). The assay is described as above.
Assay [3] addresses human FcγRIIA_131R (CD32a) extracellular domain (human) (UniProt P12318). Described as above.
For assay [4], the target named is human FcγRIIb (CD32b) extracellular domain (human) (UniProt P31994). Described as above.
The target in assay [5] is human FcγRI (CD64) extracellular domain (human) (UniProt P12314). Nature of the assay: SPR (Biacore T100), antibody captured on Protein A, FcγR ECD as analyte, 25 C.
human FcγRI (CD64) extracellular domain (human), sequence (P12314 16-292): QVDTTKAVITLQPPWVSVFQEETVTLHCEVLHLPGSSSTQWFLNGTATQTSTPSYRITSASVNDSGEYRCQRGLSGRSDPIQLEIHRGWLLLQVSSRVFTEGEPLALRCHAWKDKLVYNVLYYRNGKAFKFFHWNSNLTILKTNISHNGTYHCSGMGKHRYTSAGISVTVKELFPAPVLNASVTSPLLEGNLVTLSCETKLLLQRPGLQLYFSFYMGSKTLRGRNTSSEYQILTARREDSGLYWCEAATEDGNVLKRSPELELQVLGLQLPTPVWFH

human FcγRIIA_131H (CD32a) extracellular domain (human), sequence (P12318 34-217): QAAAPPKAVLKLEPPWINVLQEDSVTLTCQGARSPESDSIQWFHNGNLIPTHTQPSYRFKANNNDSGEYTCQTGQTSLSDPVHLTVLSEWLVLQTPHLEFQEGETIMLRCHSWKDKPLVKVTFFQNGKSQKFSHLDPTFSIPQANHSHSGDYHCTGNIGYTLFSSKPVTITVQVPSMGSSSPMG
human FcγRIIA_131R (CD32a) extracellular domain (human), sequence (P12318 34-217 H167R): as the sequence (P12318 34-217) above, with H134R counted along it
human FcγRIIb (CD32b) extracellular domain (human), sequence (P31994 43-217): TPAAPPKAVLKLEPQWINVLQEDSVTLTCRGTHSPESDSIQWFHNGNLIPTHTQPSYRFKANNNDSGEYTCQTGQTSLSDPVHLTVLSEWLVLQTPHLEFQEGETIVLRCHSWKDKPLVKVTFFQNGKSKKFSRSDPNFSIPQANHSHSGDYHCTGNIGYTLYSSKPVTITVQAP
human FcγRIIIA_F158 (CD16a) extracellular domain (human), sequence (P08637 17-208): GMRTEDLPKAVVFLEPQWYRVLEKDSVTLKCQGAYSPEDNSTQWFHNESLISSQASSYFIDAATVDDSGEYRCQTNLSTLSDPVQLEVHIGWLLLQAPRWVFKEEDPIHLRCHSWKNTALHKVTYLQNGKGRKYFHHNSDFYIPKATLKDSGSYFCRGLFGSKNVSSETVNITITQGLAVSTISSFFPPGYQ

One may read the Kd as the equilibrium constant for the complex coming apart. As to Human WT IgG1 Fc (antibody), the Kd was 900 nM in assay [1]; 500 nM in assay [2]; 500 nM in assay [3]; 1900 nM in assay [4]; 0.0426 nM in assay [5].
